Earlier results as cited in paper PMC3159028.

Biological target: Ndel1 58-169 (Homo sapiens) (UniProt Q9GZM8)
Sequence (Q9GZM8 58-169): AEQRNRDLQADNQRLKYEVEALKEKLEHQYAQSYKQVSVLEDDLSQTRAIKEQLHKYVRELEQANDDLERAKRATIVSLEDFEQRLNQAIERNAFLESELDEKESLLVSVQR

Chain of Lis1 (P43034 whole entry): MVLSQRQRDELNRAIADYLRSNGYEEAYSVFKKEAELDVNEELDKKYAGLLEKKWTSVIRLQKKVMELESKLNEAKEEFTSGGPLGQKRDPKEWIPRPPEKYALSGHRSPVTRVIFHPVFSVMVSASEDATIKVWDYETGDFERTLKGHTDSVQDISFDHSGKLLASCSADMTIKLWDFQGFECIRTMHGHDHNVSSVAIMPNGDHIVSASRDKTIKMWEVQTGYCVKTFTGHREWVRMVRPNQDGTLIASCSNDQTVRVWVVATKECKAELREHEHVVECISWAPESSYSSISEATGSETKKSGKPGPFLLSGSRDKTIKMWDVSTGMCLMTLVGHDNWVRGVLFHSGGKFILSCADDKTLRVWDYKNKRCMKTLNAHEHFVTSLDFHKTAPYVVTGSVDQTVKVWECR

- Kd: 300 nM
Substance: Lis1 (from UniProt P43034)
